# Laboratory results: patent US20160159924A1 (Novo Nordisk, published 2016)
# Target: T1, recombinant human sc-uPA (human, UniProt P00749 21-431)
# T1 construct: 411 amino acid single-chain zymogen expressed in HEK293; the 20-residue signal peptide is not present in the mature protein; also called human single-chain uPA; pro-uPA
# Assay: SPR, mAb immobilised
# Procedure: The binding affinity to recombinant human sc-uPA protein (SEQ ID NO:1) was measured by surface plasmon resonance (SPR).
# The experiments were performed on a Biacore™ instrument (GE Healthcare) and analysed with the BIAcore 4000 Evaluation Software. Anti-human uPA mAb variants were directly immobilized at 150-600 RU on flow cells of a CM5 sensor chip (GE Healthcare; cat. # BR-1000-12) via amine coupling, respectively. Recombinant human sc-uPA was diluted in HBS-N (GE Healthcare Cat BR-1006-70) with 1% BSA buffer with a dilution factor 3× ranging 1000-0.13 nM. Recombinant human sc-uPA was injected for 60 s, followed by a 600 s dissociation phase. Binding curves were measured at 25° C. with a flow rate of 30 μL/min. Regeneration of the chip surface was performed with pH1.5 Glycine for 25 s at 30 μl/min. Determination of the kinetic parameters was performed by fitting with a 1:1 binding model. Binding affinities were calculated and are stated in Table 17 below.
row,Kd [nM],Binder
1,1.7,"rec0266-0000-0010-VH_D98H (antibody, mouse IgG1, V domains shown) VH: DVKLVESGGGLVKPGGSLKLSCVASGFTFSSYTMSWVRQTPEKRLEWVATISGGGSHIYYADSVKGRFTISRDNAKNTLYLQMSSLKSEDTAIYYCTRDGRHGSWFAYWGQGTLVTVSA VL: DIVMTQSPATLSVTPGDRVSLSCRTSQSIGDYLHWYQQKSHESPRLLIKYVSQSISGIPSRFSGSGSGSDFTLSINSVESEDVGVYYCQNSHSFPLTFGSGTKLELKR"
2,2.4,"rec0266-0000-0010-VH_D98G (antibody, mouse IgG1, V domains shown) VH: DVKLVESGGGLVKPGGSLKLSCVASGFTFSSYTMSWVRQTPEKRLEWVATISGGGSHIYYADSVKGRFTISRDNAKNTLYLQMSSLKSEDTAIYYCTRDGRGGSWFAYWGQGTLVTVSA VL: DIVMTQSPATLSVTPGDRVSLSCRTSQSIGDYLHWYQQKSHESPRLLIKYVSQSISGIPSRFSGSGSGSDFTLSINSVESEDVGVYYCQNSHSFPLTFGSGTKLELKR"
3,0.95,"rec0266-0000-0010-VH_D98A (antibody, mouse IgG1, V domains shown) VH: DVKLVESGGGLVKPGGSLKLSCVASGFTFSSYTMSWVRQTPEKRLEWVATISGGGSHIYYADSVKGRFTISRDNAKNTLYLQMSSLKSEDTAIYYCTRDGRAGSWFAYWGQGTLVTVSA VL: DIVMTQSPATLSVTPGDRVSLSCRTSQSIGDYLHWYQQKSHESPRLLIKYVSQSISGIPSRFSGSGSGSDFTLSINSVESEDVGVYYCQNSHSFPLTFGSGTKLELKR"
4,2,"rec0266-0000-0010-VH_D98I (antibody, mouse IgG1, V domains shown) VH: DVKLVESGGGLVKPGGSLKLSCVASGFTFSSYTMSWVRQTPEKRLEWVATISGGGSHIYYADSVKGRFTISRDNAKNTLYLQMSSLKSEDTAIYYCTRDGRIGSWFAYWGQGTLVTVSA VL: DIVMTQSPATLSVTPGDRVSLSCRTSQSIGDYLHWYQQKSHESPRLLIKYVSQSISGIPSRFSGSGSGSDFTLSINSVESEDVGVYYCQNSHSFPLTFGSGTKLELKR"
5,4.9,"rec0266-0000-0010-VH_D98E (antibody, mouse IgG1, V domains shown) VH: DVKLVESGGGLVKPGGSLKLSCVASGFTFSSYTMSWVRQTPEKRLEWVATISGGGSHIYYADSVKGRFTISRDNAKNTLYLQMSSLKSEDTAIYYCTRDGREGSWFAYWGQGTLVTVSA VL: DIVMTQSPATLSVTPGDRVSLSCRTSQSIGDYLHWYQQKSHESPRLLIKYVSQSISGIPSRFSGSGSGSDFTLSINSVESEDVGVYYCQNSHSFPLTFGSGTKLELKR"
6,1.5,"rec0266-0000-0010-VH_D98F (antibody, mouse IgG1, V domains shown) VH: DVKLVESGGGLVKPGGSLKLSCVASGFTFSSYTMSWVRQTPEKRLEWVATISGGGSHIYYADSVKGRFTISRDNAKNTLYLQMSSLKSEDTAIYYCTRDGRFGSWFAYWGQGTLVTVSA VL: DIVMTQSPATLSVTPGDRVSLSCRTSQSIGDYLHWYQQKSHESPRLLIKYVSQSISGIPSRFSGSGSGSDFTLSINSVESEDVGVYYCQNSHSFPLTFGSGTKLELKR"

# Further lines, the binder ahead of its results:
row,Binder,Kd [nM]
1,"rec0266-0000-0010-VH_D95A (antibody, mouse IgG1, V domains shown) VH: DVKLVESGGGLVKPGGSLKLSCVASGFTFSSYTMSWVRQTPEKRLEWVATISGGGSHIYYADSVKGRFTISRDNAKNTLYLQMSSLKSEDTAIYYCTRAGRDGSWFAYWGQGTLVTVSA VL: DIVMTQSPATLSVTPGDRVSLSCRTSQSIGDYLHWYQQKSHESPRLLIKYVSQSISGIPSRFSGSGSGSDFTLSINSVESEDVGVYYCQNSHSFPLTFGSGTKLELKR",2.6
2,"rec0266-0000-0010-VH_D95T (antibody, mouse IgG1, V domains shown) VH: DVKLVESGGGLVKPGGSLKLSCVASGFTFSSYTMSWVRQTPEKRLEWVATISGGGSHIYYADSVKGRFTISRDNAKNTLYLQMSSLKSEDTAIYYCTRTGRDGSWFAYWGQGTLVTVSA VL: DIVMTQSPATLSVTPGDRVSLSCRTSQSIGDYLHWYQQKSHESPRLLIKYVSQSISGIPSRFSGSGSGSDFTLSINSVESEDVGVYYCQNSHSFPLTFGSGTKLELKR",1.5
3,"rec0266-0000-0010-VH_D95L (antibody, mouse IgG1, V domains shown) VH: DVKLVESGGGLVKPGGSLKLSCVASGFTFSSYTMSWVRQTPEKRLEWVATISGGGSHIYYADSVKGRFTISRDNAKNTLYLQMSSLKSEDTAIYYCTRLGRDGSWFAYWGQGTLVTVSA VL: DIVMTQSPATLSVTPGDRVSLSCRTSQSIGDYLHWYQQKSHESPRLLIKYVSQSISGIPSRFSGSGSGSDFTLSINSVESEDVGVYYCQNSHSFPLTFGSGTKLELKR",4.7
4,"rec0266-0000-0010-VH_D95Y (antibody, mouse IgG1, V domains shown) VH: DVKLVESGGGLVKPGGSLKLSCVASGFTFSSYTMSWVRQTPEKRLEWVATISGGGSHIYYADSVKGRFTISRDNAKNTLYLQMSSLKSEDTAIYYCTRYGRDGSWFAYWGQGTLVTVSA VL: DIVMTQSPATLSVTPGDRVSLSCRTSQSIGDYLHWYQQKSHESPRLLIKYVSQSISGIPSRFSGSGSGSDFTLSINSVESEDVGVYYCQNSHSFPLTFGSGTKLELKR",5
5,"rec0266-0000-0010-VH_D95G (antibody, mouse IgG1, V domains shown) VH: DVKLVESGGGLVKPGGSLKLSCVASGFTFSSYTMSWVRQTPEKRLEWVATISGGGSHIYYADSVKGRFTISRDNAKNTLYLQMSSLKSEDTAIYYCTRGGRDGSWFAYWGQGTLVTVSA VL: DIVMTQSPATLSVTPGDRVSLSCRTSQSIGDYLHWYQQKSHESPRLLIKYVSQSISGIPSRFSGSGSGSDFTLSINSVESEDVGVYYCQNSHSFPLTFGSGTKLELKR",12
6,"rec0266-0000-0010-VH_D95H (antibody, mouse IgG1, V domains shown) VH: DVKLVESGGGLVKPGGSLKLSCVASGFTFSSYTMSWVRQTPEKRLEWVATISGGGSHIYYADSVKGRFTISRDNAKNTLYLQMSSLKSEDTAIYYCTRHGRDGSWFAYWGQGTLVTVSA VL: DIVMTQSPATLSVTPGDRVSLSCRTSQSIGDYLHWYQQKSHESPRLLIKYVSQSISGIPSRFSGSGSGSDFTLSINSVESEDVGVYYCQNSHSFPLTFGSGTKLELKR",6.5
7,"rec0266-0000-0010-VH_D95I (antibody, mouse IgG1, V domains shown) VH: DVKLVESGGGLVKPGGSLKLSCVASGFTFSSYTMSWVRQTPEKRLEWVATISGGGSHIYYADSVKGRFTISRDNAKNTLYLQMSSLKSEDTAIYYCTRIGRDGSWFAYWGQGTLVTVSA VL: DIVMTQSPATLSVTPGDRVSLSCRTSQSIGDYLHWYQQKSHESPRLLIKYVSQSISGIPSRFSGSGSGSDFTLSINSVESEDVGVYYCQNSHSFPLTFGSGTKLELKR",1.4
8,"rec0266-0000-0010-VH_D95E (antibody, mouse IgG1, V domains shown) VH: DVKLVESGGGLVKPGGSLKLSCVASGFTFSSYTMSWVRQTPEKRLEWVATISGGGSHIYYADSVKGRFTISRDNAKNTLYLQMSSLKSEDTAIYYCTREGRDGSWFAYWGQGTLVTVSA VL: DIVMTQSPATLSVTPGDRVSLSCRTSQSIGDYLHWYQQKSHESPRLLIKYVSQSISGIPSRFSGSGSGSDFTLSINSVESEDVGVYYCQNSHSFPLTFGSGTKLELKR",2
9,"rec0266-0000-0010-VH_D95F (antibody, mouse IgG1, V domains shown) VH: DVKLVESGGGLVKPGGSLKLSCVASGFTFSSYTMSWVRQTPEKRLEWVATISGGGSHIYYADSVKGRFTISRDNAKNTLYLQMSSLKSEDTAIYYCTRFGRDGSWFAYWGQGTLVTVSA VL: DIVMTQSPATLSVTPGDRVSLSCRTSQSIGDYLHWYQQKSHESPRLLIKYVSQSISGIPSRFSGSGSGSDFTLSINSVESEDVGVYYCQNSHSFPLTFGSGTKLELKR",12
10,"rec0266-0000-0010-VH_D95V (antibody, mouse IgG1, V domains shown) VH: DVKLVESGGGLVKPGGSLKLSCVASGFTFSSYTMSWVRQTPEKRLEWVATISGGGSHIYYADSVKGRFTISRDNAKNTLYLQMSSLKSEDTAIYYCTRVGRDGSWFAYWGQGTLVTVSA VL: DIVMTQSPATLSVTPGDRVSLSCRTSQSIGDYLHWYQQKSHESPRLLIKYVSQSISGIPSRFSGSGSGSDFTLSINSVESEDVGVYYCQNSHSFPLTFGSGTKLELKR",0.8
11,"rec0266-0000-0010-VH_D95K (antibody, mouse IgG1, V domains shown) VH: DVKLVESGGGLVKPGGSLKLSCVASGFTFSSYTMSWVRQTPEKRLEWVATISGGGSHIYYADSVKGRFTISRDNAKNTLYLQMSSLKSEDTAIYYCTRKGRDGSWFAYWGQGTLVTVSA VL: DIVMTQSPATLSVTPGDRVSLSCRTSQSIGDYLHWYQQKSHESPRLLIKYVSQSISGIPSRFSGSGSGSDFTLSINSVESEDVGVYYCQNSHSFPLTFGSGTKLELKR",12
12,"rec0266-0000-0010-VH_D95P (antibody, mouse IgG1, V domains shown) VH: DVKLVESGGGLVKPGGSLKLSCVASGFTFSSYTMSWVRQTPEKRLEWVATISGGGSHIYYADSVKGRFTISRDNAKNTLYLQMSSLKSEDTAIYYCTRPGRDGSWFAYWGQGTLVTVSA VL: DIVMTQSPATLSVTPGDRVSLSCRTSQSIGDYLHWYQQKSHESPRLLIKYVSQSISGIPSRFSGSGSGSDFTLSINSVESEDVGVYYCQNSHSFPLTFGSGTKLELKR",2.7
13,"rec0266-0000-0010-VH_D95R (antibody, mouse IgG1, V domains shown) VH: DVKLVESGGGLVKPGGSLKLSCVASGFTFSSYTMSWVRQTPEKRLEWVATISGGGSHIYYADSVKGRFTISRDNAKNTLYLQMSSLKSEDTAIYYCTRRGRDGSWFAYWGQGTLVTVSA VL: DIVMTQSPATLSVTPGDRVSLSCRTSQSIGDYLHWYQQKSHESPRLLIKYVSQSISGIPSRFSGSGSGSDFTLSINSVESEDVGVYYCQNSHSFPLTFGSGTKLELKR",1.3
14,"rec0266-0000-0010-VH_D95S (antibody, mouse IgG1, V domains shown) VH: DVKLVESGGGLVKPGGSLKLSCVASGFTFSSYTMSWVRQTPEKRLEWVATISGGGSHIYYADSVKGRFTISRDNAKNTLYLQMSSLKSEDTAIYYCTRSGRDGSWFAYWGQGTLVTVSA VL: DIVMTQSPATLSVTPGDRVSLSCRTSQSIGDYLHWYQQKSHESPRLLIKYVSQSISGIPSRFSGSGSGSDFTLSINSVESEDVGVYYCQNSHSFPLTFGSGTKLELKR",4
